Data reported in patent publication US20190233475A1 (Bicycle, published 2019).
*1 amine or outer side, *2 acyl side, *3 side chain or, on linkers, in order; H or OH if unused. Bridges are numbered along the chain shown (N, C = ends). Where no end group is shown, it is not given here. [ ]: non-standard residue; d: D form. TBMB = c1c(C[*:1])cc(C[*:3])cc1C[*:2]; NMeR = CN[C@@H](CCCNC(=N)N)C(=O)O; hArg = N=C(N)NCCCC[C@H](N)C(=O)O; Aze = O=C(O)[C@@H]1CCN1

B1: Ac-(06-550) Aze3 HArg5 (peptide)
peptide: Ac-CSF[Aze]Y[hArg]CVYYPDIC-NH2
modifications: linker 1-7-14 via TBMB
notes: Synthetic bicyclic peptide, 5 x 6, made on Rink amide resin
B2: Ac-(06-259-02) (peptide)
peptide: Ac-CNTWNPWCPWDAPLC-NH2
modifications: linker 1-8-15 via TBMB
notes: Synthetic bicyclic peptide without the terminal alanines, made on Rink amide resin
B3: Ac-(06-550) Aze3 NMe-Arg5 (peptide)
peptide: Ac-CSF[Aze]Y[NMeR]CVYYPDIC-NH2
modifications: linker 1-7-14 via TBMB
notes: as for B1
B4: Ac-(06-550) NMe-Arg5 (peptide)
peptide: Ac-CSFPY[NMeR]CVYYPDIC-NH2
modifications: linker 1-7-14 via TBMB
notes: as for B1
B5: Ac-(06-550) HArg5 (peptide)
peptide: Ac-CSFPY[hArg]CVYYPDIC-NH2
modifications: linker 1-7-14 via TBMB
notes: as for B1
B6: 06-254-E6 (peptide)
peptide: CKNYWNPCGLVYSTC
modifications: linker 1-8-15 via TBMB
B7: 06-254-E5 (peptide)
peptide: CKNYWNPCDLLESTC
modifications: linker 1-8-15 via TBMB
B8: 06-259 (parent) (peptide)
peptide: CNTWNPWCGWVGGFC
modifications: linker 1-8-15 via TBMB
notes: also called 06-259 (phage clone)
B9: 06-259-01 (phage clone) (peptide)
peptide: CNHWNPWCSVEPPVC
modifications: linker 1-8-15 via TBMB
B10: 06-259-F2 (peptide)
peptide: CNTWNPWCSWPDIDC
modifications: linker 1-8-15 via TBMB
B11: 06-254-G4 (peptide)
peptide: CKNYWNPCDLVEAQC
modifications: linker 1-8-15 via TBMB
B12: 06-254-H4 (peptide)
peptide: CKNYWNPCDLVQIHC
modifications: linker 1-8-15 via TBMB
B13: 06-254-02 (phage clone) (peptide)
peptide: CKNYWNPCDLIPGPC
modifications: linker 1-8-15 via TBMB
B14: 06-259-A6 (peptide)
peptide: CNYWNPWCSDTRIGC
modifications: linker 1-8-15 via TBMB
B15: 06-254-D3 (peptide)
peptide: CKNFWNPCDLIPISC
modifications: linker 1-8-15 via TBMB
B16: 06-254-G3 (peptide)
peptide: CKNYWNPCDLIPTGC
modifications: linker 1-8-15 via TBMB
B17: 06-254-E2 (peptide)
peptide: CKNYWNPCDLIWTDC
modifications: linker 1-8-15 via TBMB
B18: 06-259-H3 (peptide)
peptide: CNHWNPWCSDDPYIC
modifications: linker 1-8-15 via TBMB
B19: 06-254-G2 (peptide)
peptide: CKNYWNPCDLIGITC
modifications: linker 1-8-15 via TBMB
B20: 06-254-A4 (peptide)
peptide: CKNYWNPCDLVDTFC
modifications: linker 1-8-15 via TBMB
B21: 06-254-F4 (peptide)
peptide: CKNYWNPCDLIQDAC
modifications: linker 1-8-15 via TBMB
B22: 06-259-E2 (peptide)
peptide: CNHWNPWCPADIPVC
modifications: linker 1-8-15 via TBMB
B23: 06-259-02 (phage clone) (peptide)
peptide: CNTWNPWCPWDAPLC
modifications: linker 1-8-15 via TBMB
B24: 06-254-E3 (peptide)
peptide: CKNYWNPCDLVHDIC
modifications: linker 1-8-15 via TBMB
B25: 06-254 parent (peptide)
peptide: CKNYWNPCDLVTISC
modifications: linker 1-8-15 via TBMB
notes: also called 06-254 (phage clone)
B26: 06-254-B9 (peptide)
peptide: CKNYWNPCDLLGIAC
modifications: linker 1-8-15 via TBMB
B27: 06-254-A7 (peptide)
peptide: CKNYWNPCDLLHVRC
modifications: linker 1-8-15 via TBMB
B28: 06-254-B3 (peptide)
peptide: CKNYWNPCDLISIKC
modifications: linker 1-8-15 via TBMB
B29: 06-259-H4 (peptide)
peptide: CNHWNPWCSSDPPVC
modifications: linker 1-8-15 via TBMB
B30: 06-259-03 (phage clone) (peptide)
peptide: CNHWNPWCSADPPIC
modifications: linker 1-8-15 via TBMB
B31: 06-259-F1 (peptide)
peptide: CNHWNPWCSADPPRC
modifications: linker 1-8-15 via TBMB
B32: 06-254-03 (phage clone) (peptide)
peptide: CKNYWNPCDLVMDTC
modifications: linker 1-8-15 via TBMB
B33: 06-254-01 (phage clone) (peptide)
peptide: CKNYWNPCDLIETTC
modifications: linker 1-8-15 via TBMB
B34: 06-254-D1 (peptide)
peptide: CKNYWNPCDLIRPPC
modifications: linker 1-8-15 via TBMB
B35: 06-254-C1 (peptide)
peptide: CKNYWNPCDLIAPYC
modifications: linker 1-8-15 via TBMB
B36: 06-254-F5 (peptide)
peptide: CKNYWNPCDLIPDLC
modifications: linker 1-8-15 via TBMB
B37: 06-254-B1 (peptide)
peptide: CKNYWNPCDLLPDLC
modifications: linker 1-8-15 via TBMB
B38: 06-254-H3 (peptide)
peptide: CKNYWNPCDLIADLC
modifications: linker 1-8-15 via TBMB
B39: 06-254-D6 (peptide)
peptide: CKNYWNPCDLIPDMC
modifications: linker 1-8-15 via TBMB

Target: T1, human plasma kallikrein (human, UniProt P03952 20-638)
T1 construct: Enzyme used in the Ki assays; also called human kallikrein; PK
T1 sequence (P03952 20-638 limits assumed): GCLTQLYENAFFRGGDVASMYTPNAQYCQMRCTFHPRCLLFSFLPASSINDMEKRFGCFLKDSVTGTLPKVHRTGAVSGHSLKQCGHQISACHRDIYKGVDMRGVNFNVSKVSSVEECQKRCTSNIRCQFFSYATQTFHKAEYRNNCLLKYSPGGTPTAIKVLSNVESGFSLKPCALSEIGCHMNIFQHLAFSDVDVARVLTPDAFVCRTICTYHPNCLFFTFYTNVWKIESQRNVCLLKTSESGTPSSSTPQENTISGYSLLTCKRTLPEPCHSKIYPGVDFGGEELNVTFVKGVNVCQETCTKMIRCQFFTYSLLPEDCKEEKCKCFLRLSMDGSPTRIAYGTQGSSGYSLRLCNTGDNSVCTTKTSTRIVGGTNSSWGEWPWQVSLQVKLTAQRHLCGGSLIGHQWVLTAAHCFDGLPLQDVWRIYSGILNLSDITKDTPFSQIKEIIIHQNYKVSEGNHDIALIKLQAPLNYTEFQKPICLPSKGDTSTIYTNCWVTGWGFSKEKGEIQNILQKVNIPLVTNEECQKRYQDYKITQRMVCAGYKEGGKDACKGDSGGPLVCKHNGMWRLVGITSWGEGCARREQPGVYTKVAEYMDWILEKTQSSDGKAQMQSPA
Assay: enzyme inhibition assay, fluorogenic substrate Z-PheArg-AMC
Experimental: (§1) Functional enzyme assays were conducted in 10 mM Tris HCl, 150 mM NaCl, 10 mM MgCl₂, 1 mM CaCl₂ and 1 mg/mL BSA (all Sigma UK) pH 7.4 at 25° C. in solid black 96 or 384 well plates. […] Release of AMC was measured using a Pherastar FS (BMG Labtech), excitation 360 nm, emission 460 nm. The rate of the linear phase of the reaction, typically 5 to 45 minutes, was calculated in MARS data analysis software (BMG labtech). The rate was then used to calculate the IC₅₀ and Kᵢ in Prism (GraphPad). A four parameter inhibition non-linear regression equation was used to calculate the IC₅₀. The One site-fit Kᵢ equation used to calculate the Kᵢ, constraining the Kᵢ to the Kₘ for the substrate which is 150 μM for the human enzyme, and 200 μM for the rat orthologue. All Kᵢ/IC₅₀ values are the mean of at least two independent experiments, and at least three for peptides with Kᵢ values lower than 1 nM. For rabbit kallikrein, between 7 to 14 pM enzyme was employed, with 33 μM substrate with a Kₘ of 50 μM.

Binder | Ki [nM]
B1 | 0.5
B2 | 5.9
B3 | 53
B4 | 2.66
B5 | 1.8

Target: T2, rat plasma kallikrein (rat, UniProt P14272 391-638)
T2 construct: domain: catalytic domain; Expressed and purified in house; also called rat kallikrein; rPK
T2 sequence (P14272 391-638 limits assumed): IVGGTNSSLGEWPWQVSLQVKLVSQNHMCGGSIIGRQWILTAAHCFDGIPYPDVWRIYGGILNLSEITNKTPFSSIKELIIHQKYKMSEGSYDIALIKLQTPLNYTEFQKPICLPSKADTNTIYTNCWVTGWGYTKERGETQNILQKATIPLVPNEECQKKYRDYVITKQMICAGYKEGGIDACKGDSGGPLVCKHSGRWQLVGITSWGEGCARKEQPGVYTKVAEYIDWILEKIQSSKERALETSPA
Assay: as above
Experimental: as §1

Binder | Ki [nM]
B1 | 5.6
B2 | 3.8
B5 | 25

Target: T3, biotinylated human plasma kallikrein (human, UniProt P03952 20-638, biotinylated (sites not given))
T3 construct: mature; also called biotinylated hPK; biotinylated human kallikrein
T3 sequence (P03952 20-638 limits assumed): as the sequence (P03952 20-638 limits assumed) above
Assay: homogeneous plate-based binding assay, TBMB-cyclised phage on biotinylated human plasma kallikrein
Experimental: Assay of binding of individual clones: Library transformant colonies, or selection output colonies, were picked and grown as individual cultures in 2TY broth containing selective antibiotic. The picked colonies were DNA-sequenced using a QIAgen PyroMark Q96 DNA sequencer to reveal the amino-acid substitution present in each clone, and were assayed for human plasma kallikrein binding as follows. The phage-containing supernatant was harvested from the culture and phage were cyclised with tris-bromomethylbenzene (TBMB) based on the methods of Heinis et al (Nature Chemical Biology vol. 5 pp 502-507 (2009)). The purified phage from this process were assayed for binding to biotinylated human plasma kallikrein using a homogeneous plate-based binding assay; assay read-out measured on a BMG Labtech Pherastar FS plate reader. The quantitative binding data from duplicate assay samples was averaged (mean) and expressed as signal:background. Assay data shown is representative of at least 2 independent experiments. The assay data was correlated with the peptide sequences.

Binder | S:B (signal:background)
B6 | 23.5
B7 | 29.7
B8 | 1.17
B9 | 51.7
B10 | 22.7
B11 | 33.1
B12 | 38.9
B13 | 46.6
B14 | 22.6
B15 | 20.3
B16 | 37.5
B17 | 31.4
B18 | 38.7
B19 | 46.3
B20 | 32.4
B21 | 46.4
B22 | 37.7

Binder | S:B (signal:background)
B23 | 43.5
B24 | 30.2
B25 | 23.5
B26 | 38
B27 | 26.1
B28 | 61.6
B29 | 33.6
B30 | 49.8
B31 | 38
B32 | 56.7
B33 | 61.9
B34 | 33.6
B35 | 27.4
B36 | 38.7
B37 | 9.99
B38 | 25.2
B39 | 24.4
